Results published in PMC11992677.

How the values were obtained:
[1] = system: METTL3 (METTL3/14 complex);METTL14 (METTL3/14 complex); assay: MST; conditions: MST and nanoDSF: 20 mM Tris pH 7.5, 50 uM ZnCl2, 1% glycerol, 1 mM DTT (MST 100 nM probe; nanoDSF 1 uM protein, 20-80 C). EMSA: 40 mM KCl, 20 mM Tris pH 7.6, 1.
[2] = system: METTL3 (METTL3/14 complex);METTL14 (METTL3/14 complex); assay: thermal shift (nanoDSF); conditions: MST and nanoDSF: 20 mM Tris pH 7.5, 50 uM ZnCl2, 1% glycerol, 1 mM DTT (MST 100 nM probe; nanoDSF 1 uM protein, 20-80 C). EMSA: 40 mM KCl, 20 mM Tris pH 7.6, 1.
[3] = system: MacroH2A.1.1 (with H2B);H2B (with MacroH2A.1.1) (;); assay: MST; conditions: poly(ADP-ribose) polymer, no base sequence; MST and nanoDSF: 20 mM Tris pH 7.5, 50 uM ZnCl2, 1% glycerol, 1 mM DTT (MST 100 nM probe; nanoDSF 1 uM protein, 20-80 C). EMSA: 40 mM KCl, 20 mM Tris pH 7.6, 1.
[4] = system: MacroH2A.1.1 (with H2B);H2B (with MacroH2A.1.1) (;); assay: thermal shift (nanoDSF); conditions: 50 uM ZnCl2; dose-dependent; poly(ADP-ribose) polymer, no base sequence; MST and nanoDSF: 20 mM Tris pH 7.5, 50 uM ZnCl2, 1% glycerol, 1 mM DTT (MST 100 nM probe; nanoDSF 1 uM protein, 20-80 C). EMSA: 40 mM KCl, 20 mM Tris pH 7.6, 1.

Row | Substance | Kd [1] [µM] | binding signal [2] | Kd ([1]; poly(ADP-ribose) polymer, no base sequence) [µM] | Kd [3] [µM] | binding signal (C (delta Tm, maximum)) ([2]; 50 uM ZnCl2, concentration-dependent, poly(ADP-ribose) polymer, no base sequence) | binding signal (C (delta Tm, maximum)) [4]
1 | DRACH RNA probe (4 tandem repeats of DRACH motif) | 0.7 | 1 C (delta Tm) |  |  |  | 
2 | PAR (poly-(ADP-ribose)) |  |  | 1.1 | 0.5 | > 2 | 3
